Test results published in article PMC10681732.

T1: RIG-I CTD WT (crystal) (human, UniProt O95786 802-925)
T1 sequence: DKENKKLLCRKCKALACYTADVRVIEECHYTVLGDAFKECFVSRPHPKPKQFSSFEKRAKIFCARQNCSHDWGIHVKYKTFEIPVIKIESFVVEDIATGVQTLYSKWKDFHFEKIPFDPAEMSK

T2: RIG-I CTD I875A (crystal) (human, UniProt O95786 802-925, I875A)
T2 sequence: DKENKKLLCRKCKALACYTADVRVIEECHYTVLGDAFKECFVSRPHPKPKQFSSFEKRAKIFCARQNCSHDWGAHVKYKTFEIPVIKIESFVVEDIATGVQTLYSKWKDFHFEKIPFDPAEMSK

B1: OH-dsRNA (crystallization) (dsRNA)
RNA 1: GACGCUAGCGUC
RNA 2: GACGCUAGCGUC
B2: p-dsRNA (crystallization) (dsRNA)
RNA 1: GACGCUAGCGUC
RNA 2: GACGCUAGCGUC
modifications: 5'-monophosphate

What was measured:
RIG-I CTD WT (crystal) = molecular target: T1, RIG-I CTD WT (crystal); test: X-ray crystallography
[1] = molecular target: T2, RIG-I CTD I875A (crystal); test: X-ray crystallography

| Binder | binding result (RIG-I CTD WT (crystal)) | binding result [1] |
| --- | --- | --- |
| B1 | binds | – |
| B2 | – | binds |
